{"source": "IntAct's records for PubMed 21317894", "parents": {"B1": {"name": "Complement factor H (Homo sapiens), P08603 (parent)", "chain": "MRLLAKIICLMLWAICVAEDCNELPPRRNTEILTGSWSDQTYPEGTQAIYKCRPGYRSLGNVIMVCRKGEWVALNPLRKCQKRPCGHPGDTPFGTFTLTGGNVFEYGVKAVYTCNEGYQLLGEINYRECDTDGWTNDIPICEVVKCLPVTAPENGKIVSSAMEPDREYHFGQAVRFVCNSGYKIEGDEEMHCSDDGFWSKEKPKCVEISCKSPDVINGSPISQKIIYKENERFQYKCNMGYEYSERGDAVCTESGWRPLPSCEEKSCDNPYIPNGDYSPLRIKHRTGDEITYQCRNGFYPATRGNTAKCTSTGWIPAPRCTLKPCDYPDIKHGGLYHENMRRPYFPVAVGKYYSYYCDEHFETPSGSYWDHIHCTQDGWSPAVPCLRKCYFPYLENGYNQNYGRKFVQGKSIDVACHPGYALPKAQTTVTCMENGWSPTPRCIRVKTCSKSSIDIENGFISESQYTYALKEKAKYQCKLGYVTADGETSGSITCGKDGWSAQPTCIKSCDIPVFMNARTKNDFTWFKLNDTLDYECHDGYESNTGSTTGSIVCGYNGWSDLPICYERECELPKIDVHLVPDRKKDQYKVGEVLKFSCKPGFTIVGPNSVQCYHFGLSPDLPICKEQVQSCGPPPELLNGNVKEKTKEEYGHSEVVEYYCNPRFLMKGPNKIQCVDGEWTTLPVCIVEESTCGDIPELEHGWAQLSSPPYYYGDSVEFNCSESFTMIGHRSITCIHGVWTQLPQCVAIDKLKKCKSSNLIILEEHLKNKKEFDHNSNIRYRCRGKEGWIHTVCINGRWDPEVNCSMAQIQLCPPPPQIPNSHNMTTTLNYRDGEKVSVLCQENYLIQEGEEITCKDGRWQSIPLCVEKIPCSQPPQIEHGTINSSRSSQESYAHGTKLSYTCEGGFRISEENETTCYMGKWSSPPQCEGLPCKSPPEISHGVVAHMSDSYQYGEEVTYKCFEGFGIDGPAIAKCLGEKWSHPPSCIKTDCLSLPSFENAIPMGEKKDVYKAGEQVTYTCATYYKMDGASNVTCINSRWTGRPTCRDTSCVNPPTVQNAYIVSRQMSKYPSGERVRYQCRSPYEMFGDEEVMCLNGNWTEPPQCKDSTGKCGPPPPIDNGDITSFPLSVYAPASSVEYQCQNLYQLEGNKRITCRNGQWSEPPKCLHPCVISREIMENYNIALRWTAKQKLYSRTGESVEFVCKRGYRLSSRSHTLRTTCWDGKLEYPTCAKR"}}}
{"variants_of": "B1", "details": "with co3_human C3, P01024"}
{"variant": "R1203S", "effect of a mutation on the interaction": "decreasing interaction"}
{"variant": "R1182S", "effect of a mutation on the interaction": "decreasing interaction"}
{"variant": "R1215Q", "effect of a mutation on the interaction": "decreasing interaction"}
{"variant": "D1119G", "effect of a mutation on the interaction": "disrupting interaction"}
